Measurements as given in patent EP4703474A1, “ANTI-LRRC15 ANTIBODY” (priority 2023, dated 2024).

Key:
[1] = system: Gastric carcinoma cell line NCI-N87; test: In vivo antitumor effect, NCI-N87 subcutaneous transplant model; settings: 0.4 mg/kg, tail vein, on Day 10, female SCID mice
Procedure: (§1) The antitumor effects of the antibody-drug conjugates were evaluated by using animal models in which cells of a human tumor cell line had been transplanted into immunodeficient mice, or cells of a mouse tumor cell line had been transplanted into immunocompetent mice. 4 to 6 Week-old SCID mice (CB17/Icr-Prkdc[scid]/CrlCrlj, Jackson Laboratory Japan, Inc.), NSG mice (NOD.Cg-Prkdcscid Il2rgtm1Wjl/SzJ, Jackson Laboratory Japan, Inc.), or B6J mice (C57BL/6J, Jackson Laboratory Japan, Inc.) were habituated for 3 days or more under SPF conditions before experimental use. The mice were fed with sterilized solid feed and given sterilized tap water. The major and minor diameters of the transplanted tumors were measured twice a week with an electronic digital caliper (Mitutoyo Corporation), and the estimated tumor volume was calculated using the following formula. Estimated tumor volume (mm^3) = 1/2 × major diameter (mm) × [minor diameter (mm)]^2 All antibody-drug conjugates were diluted with ABS and administered into the tail vein at doses shown in each Example. In addition, ABS (vehicle) or control hIgG-PBD prepared in Reference Example 4 was administered as the control group, in a similar manner. 5 to 6 Mice were used per group in the experiment. To analyze the LRRC15 expression in mouse tumor models, immunohistochemical staining of LRRC15 was performed. […]

[2] = system: Fibrosarcoma cell line HT-1080; test: In vivo antitumor effect, HT-1080 subcutaneous transplant model; settings: 0.4 mg/kg, tail vein, on Day 7, female SCID mice
Procedure: as §1

B1: H02L01-V1-PBD (conjugate)
heavy: EVQLVESGGGLVQPGGSLRLSCAASGFTFRDYYMAWVRQAPGKGLEWVSSIGFDESRTYYADSVKGRFTISRDDSKNTLYLQMNSLRAEDTAVYYCARHGVSKYSGDNWFAYWGQGTLVTVSSASTKGPSVFPLAPSSKSTSGGTAALGCLVKDYFPEPVTVSWNSGALTSGVHTFPAVLQSSGLYSLSSVVTVPSSSLGTQTYICNVNHKPSNTKVDKKVEPKSCDKTHTCPPCPAPEAAGGPSVFLFPPKPKDTLMISRTPEVTCVVVDVSHEDPEVKFNWYVDGVEVHNAKTKPREEQYNSTYRVVSVLTVLHQDWLNGKEYKCKVSNKALAAPIEKTISKAKGQPREPQVYTLPPSREEMTKNQVSLTCLVKGFYPSDIAVEWESNGQPENNYKTTPPVLDSDGSFFLYSKLTVDKSRWQQGNVFSCSVMHEALHNHYTQKSLSLSPGK
light: DIQMTQSPSSLSASVGDRVTITCKSSQGLLYSGDQKNYLAWYQQKPGKAPKLLIYWASTRQSGVPSRFSGSGSGTDFTLTISSLQPEDFATYYCQQYYDPPYTFGQGTKVEIKRTVAAPSVFIFPPSDEQLKSGTASVVCLLNNFYPREAKVQWKVDNALQSGNSQESVTEQDSKDSTYSLSSTLTLSKADYEKHKVYACEVTHQGLSSPVTKSFNRGEC
antitumor effect (estimated tumor volume) [1]: antitumor activity higher than that of the vehicle | antitumor effect (estimated tumor volume) [2]: antitumor activity higher than that of the vehicle and control hIgG-PBD
